Measured values reported in patent US20210171621A1.

Assays:
[1] = molecular target: human IL-5 protein (purchased from Beijing Yiqiao Shenzhou) (human) (UniProt P05113); experiment: cell-based or functional assay
[2] = molecular target: human IL-5 protein (purchased from Beijing Yiqiao Shenzhou) (human) (UniProt P05113); experiment: SPR Biacore T200, antibody captured on Protein A/G, IL-5 as analyte
[3] = molecular target: IL-5 mutant 104L to Alanine, with His-tag (human) (UniProt P05113); experiment: capture ELISA: His-tagged IL-5 from HEK293E supernatant captured with murine anti-His antibody, detected with Goat-anti-Human-Fc-Specific-HRP; mean of four wells
[4] = molecular target: IL-5 mutant 86C to Alanine, with His-tag (human) (UniProt P05113); experiment: as above
[5] = molecular target: IL-5 mutant 96F to Alanine, with His-tag (human) (UniProt P05113); experiment: as above

Chain of Nucala (Mepolizumab) (antibody) (VH): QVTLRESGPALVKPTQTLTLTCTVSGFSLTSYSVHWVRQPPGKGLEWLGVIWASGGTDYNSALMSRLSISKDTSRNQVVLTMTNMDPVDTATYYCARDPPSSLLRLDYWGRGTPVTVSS
Chain of Nucala (Mepolizumab) (antibody) (VL): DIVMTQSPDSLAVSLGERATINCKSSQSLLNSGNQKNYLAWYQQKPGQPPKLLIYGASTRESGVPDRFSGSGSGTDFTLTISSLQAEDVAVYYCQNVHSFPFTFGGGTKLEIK

Nucala (Mepolizumab) (antibody)
IC50 for inhibiting IL-5-induced TF-1 cell proliferation (Nucala) [1]: 0.0708 µg/mL | Kd [2]: 201 pM | OD450 [3]: 0.109 | OD450 [4]: 0.0967 | OD450 [5]: 0.19
